# According to patent US20180194839A1 (Novartis, published 2018):
# Changes are numbered by the printed parent chain. In names and notes the source's numbering stands.
# T1: recombinant human IL-17A (SEQ ID NO: 76) (human, UniProt Q16552 24-155, limits assumed)
# T1 sequence: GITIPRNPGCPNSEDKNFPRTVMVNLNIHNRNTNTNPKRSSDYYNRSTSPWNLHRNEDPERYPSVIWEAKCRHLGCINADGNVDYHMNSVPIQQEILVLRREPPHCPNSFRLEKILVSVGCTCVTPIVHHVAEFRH
# T2: recombinant mouse IL-17F (R&D Systems Cat#2057-IL/CF) (mouse, UniProt Q7TNI7 29-161)
# T2 construct: also called mIL-17F
# T2 sequence (looked up): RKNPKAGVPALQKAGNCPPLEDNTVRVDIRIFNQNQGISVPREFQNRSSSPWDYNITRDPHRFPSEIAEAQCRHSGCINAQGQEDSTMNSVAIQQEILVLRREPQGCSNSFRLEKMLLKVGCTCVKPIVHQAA
# T3: recombinant mouse IL-12 (R&D Systems Cat#419-ML-010/CF) (mouse, UniProt P43431 23-215; P43432 23-335)
# T3 construct: coated at 0.5 µg/ml; also called mIL-12
# T3 sequence (looked up) 1: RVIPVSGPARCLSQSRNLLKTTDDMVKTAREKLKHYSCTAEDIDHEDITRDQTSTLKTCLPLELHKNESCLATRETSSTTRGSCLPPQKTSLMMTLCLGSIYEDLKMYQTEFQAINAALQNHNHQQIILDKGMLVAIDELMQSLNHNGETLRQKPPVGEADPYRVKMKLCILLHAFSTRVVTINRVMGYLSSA
# T3 sequence (looked up) 2: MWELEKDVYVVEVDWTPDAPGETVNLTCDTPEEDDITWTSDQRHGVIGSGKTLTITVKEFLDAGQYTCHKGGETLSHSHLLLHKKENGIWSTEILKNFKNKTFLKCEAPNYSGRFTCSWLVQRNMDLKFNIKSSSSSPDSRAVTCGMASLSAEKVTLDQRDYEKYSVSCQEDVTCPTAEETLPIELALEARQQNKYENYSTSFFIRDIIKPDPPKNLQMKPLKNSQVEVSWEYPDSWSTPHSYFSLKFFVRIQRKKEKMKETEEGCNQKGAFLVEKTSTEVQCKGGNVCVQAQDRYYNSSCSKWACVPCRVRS
# T4: recombinant human IL-12 (R&D Systems Cat#219-IL-005/CF) (human, UniProt P29459 23-219; P29460 23-328)
# T4 construct: also called huIL-12
# T4 sequence (looked up) 1: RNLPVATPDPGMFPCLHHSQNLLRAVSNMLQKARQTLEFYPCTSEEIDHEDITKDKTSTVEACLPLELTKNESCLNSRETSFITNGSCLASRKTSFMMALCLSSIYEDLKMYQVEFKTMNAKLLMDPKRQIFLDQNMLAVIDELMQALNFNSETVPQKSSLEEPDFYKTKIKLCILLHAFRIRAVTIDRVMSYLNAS
# T4 sequence (looked up) 2: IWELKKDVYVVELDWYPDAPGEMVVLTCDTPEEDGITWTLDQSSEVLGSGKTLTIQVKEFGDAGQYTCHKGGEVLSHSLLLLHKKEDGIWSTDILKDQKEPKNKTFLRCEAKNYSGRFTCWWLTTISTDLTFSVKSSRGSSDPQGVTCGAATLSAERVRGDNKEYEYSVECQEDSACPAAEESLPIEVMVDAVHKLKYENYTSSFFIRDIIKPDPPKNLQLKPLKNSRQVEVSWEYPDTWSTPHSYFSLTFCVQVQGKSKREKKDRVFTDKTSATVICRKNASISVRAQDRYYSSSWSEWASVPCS
# T5: recombinant human IL-3 (R&D Systems Cat#203-IL/CF) (human, UniProt P08700 20-152)
# T5 construct: also called huIL-3
# T5 sequence (looked up): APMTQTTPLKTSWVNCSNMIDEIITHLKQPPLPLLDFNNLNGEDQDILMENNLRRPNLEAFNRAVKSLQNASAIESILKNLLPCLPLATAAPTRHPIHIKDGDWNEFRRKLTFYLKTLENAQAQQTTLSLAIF
# T6: recombinant cynomolgus IL-17F (SEQ ID NO: 80) (cynomolgus monkey, UniProt Q96PD4 31-163 (human entry), limits assumed)
# T6 construct: also called cynoIL-17F; cyno IL-17F
# T6 chain: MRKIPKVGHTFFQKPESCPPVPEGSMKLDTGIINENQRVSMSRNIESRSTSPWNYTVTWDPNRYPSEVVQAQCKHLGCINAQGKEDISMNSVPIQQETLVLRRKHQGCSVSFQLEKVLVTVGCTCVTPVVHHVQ
# T7: recombinant human IL-17F (SEQ ID NO: 77) (human, UniProt Q96PD4 31-163)
# T7 sequence: T6 chain with E23G, T30I, K74R, H75N, L101V, V130I
# T8: recombinant human IL-17A/F heterodimer (human, UniProt Q16552 24-155; Q96PD4 31-163, limits assumed)
# T8 sequence (looked up) 1: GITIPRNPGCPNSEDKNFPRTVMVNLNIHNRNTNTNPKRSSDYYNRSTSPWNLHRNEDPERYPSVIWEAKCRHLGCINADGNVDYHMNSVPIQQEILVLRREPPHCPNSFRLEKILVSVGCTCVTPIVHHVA
# T8 sequence (looked up) 2: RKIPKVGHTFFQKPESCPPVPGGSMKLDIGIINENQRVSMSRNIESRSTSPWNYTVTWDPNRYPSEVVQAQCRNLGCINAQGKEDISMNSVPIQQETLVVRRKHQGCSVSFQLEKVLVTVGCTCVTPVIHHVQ
# T9: recombinant human IL-23 (R&D Systems Cat#1290-IL-010/CF) (human, UniProt Q9NPF7 20-189; P29460 23-328)
# T9 construct: also called huIL-23
# T9 sequence (looked up) 1: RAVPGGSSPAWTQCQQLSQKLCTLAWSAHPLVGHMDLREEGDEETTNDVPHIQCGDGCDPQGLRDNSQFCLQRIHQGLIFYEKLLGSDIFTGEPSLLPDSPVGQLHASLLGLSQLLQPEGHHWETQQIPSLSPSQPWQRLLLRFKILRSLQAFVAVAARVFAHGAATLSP
# T9 sequence (looked up) 2: T4 sequence (looked up) 2
# B1: XAB4 (antibody, human IgG1, kappa, V domains shown)
# VH: EVQLVESGGDLVQPGGSLRLSCAASGFTFSSYWMSWVRQAPGKGLEWVANIKQDGSEKYYVDSVKGRFTISRDNAKNSLYLQMNSLRAEDTAVYYCARDRGSLYYWGQGTLVTVSS
# VL: AIQLTQSPSSLSASVGDRVTITCRPSQGINWELAWYQQKPGKAPKLLIYDASSLEQGVPSRFSGSGSGTDFTLTISSLQPEDFATYYCQQFNSYPLTFGGGTKVEIKR
# notes: also called MB435 N56Q
# B2: XAB1 (antibody, human IgG1, kappa, V domains shown)
# VH: B1 VH
# VL: B1 VL with N30I, W31S, E32A, Q56N
# notes: human IgG1/kappa monoclonal antibody; also called parental XAB1; XAB1 IgG
# Assays:
# [1] = target: T1, recombinant human IL-17A (SEQ ID NO: 76); assay: cell-based or functional assay
# [2] = target: T2, recombinant mouse IL-17F (R&D Systems …); assay: ELISA, coated cytokine;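 further: antibodies incubated 3 h at room temperature on cytokine-coated plates, binding read out with alkaline phosphatase-conjugated anti-species IgG secondary antibodies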
# Description: (§1) The antibodies of the disclosure were added at 10 μg/ml (100 μl/well) for 3 h at room temperature. […] They were added at 1 or 5 μg/ml, in PBS, 0.02% NaN₃ for 3 h at RT.
# (§2) Plates were then washed 4 times with PBS/0.05% Tween 20/0.02% NaN₃. Then, an alkaline phosphatase-conjugated goat anti-human IgG antibody (Sigma Cat# A9544) was added to the wells with human antibodies at a dilution of 1/20000 (100 μl/well). An alkaline phosphatase-conjugated goat anti-mouse IgG antibody (Sigma Cat# A1047) was added to the wells with mouse antibodies at a dilution of 1/10000 (100 μl/well). An alkaline phosphatase-conjugated rabbit anti-goat IgG antibody (Sigma Cat# A7650) was added to the wells with goat antibodies at a dilution of 1/1000 (100 μl/well) and an alkaline phosphatase-conjugated rabbit anti rat-IgG antibody (Sigma Cat# A6066) was added to the wells with rat antibodies at a dilution of 1/20000 (100 μl/well).
# [3] = target: T10, recombinant human IL-1β (Novartis) (human, UniProt P01584 117-269); assay: ELISA, coated cytokine;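 further: antibodies incubated 3 h at room temperature on cytokine-coated plates, binding read out with alkaline phosphatase-conjugated anti-species IgG secondary antibodies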
# T10 construct: also called huIL1β
# Description: as §1, §2
# [4] = target: T3, recombinant mouse IL-12 (R&D Systems …); assay: ELISA, coated cytokine;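 further: antibodies incubated 3 h at room temperature on cytokine-coated plates, binding read out with alkaline phosphatase-conjugated anti-species IgG secondary antibodies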
# Description: as §1, §2
# [5] = target: T4, recombinant human IL-12 (R&D Systems …); assay: ELISA, coated cytokine;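 further: antibodies incubated 3 h at room temperature on cytokine-coated plates, binding read out with alkaline phosphatase-conjugated anti-species IgG secondary antibodies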
# Description: as §1, §2
# [6] = target: T5, recombinant human IL-3 (R&D Systems …); assay: ELISA, coated cytokine
# Description: as §1, §2
# [7] = target: T6, recombinant cynomolgus IL-17F (SEQ ID …); assay: ELISA, coated antigen
# Description: A titration of the antibodies of interest on different antigens was carried out.
# Plates were then washed 4 times with PBS/0.05% Tween 20 (Sigma Cat# P7949)/0.02% NaN₃.
# Plates were then washed 4 times with PBS/0.05% Tween 20/0.02% NaN₃. Then, an alkaline phosphatase-conjugated goat anti-human IgG antibody (Sigma Cat# A9544) was added to the wells that received test antibody at a dilution of 1/20000 (100 μl/well) for 2 h 30 min at RT. To the wells, that received mouse mAb, an alkaline phosphatase-conjugated goat anti-mouse IgG antibody (Sigma Cat# A7434) was added at a dilution of 1/10000 (100 μl/well) for 2 h 30 min at RT. An alkaline phosphatase conjugated mouse anti goat IgG antibody (Sigma Cat# A8062) was added to the goat antibodies at a dilution of 1/50000 (100 μl/well) for 2 h 30 min at RT. Plates were then washed 4 times and 100 μl of the substrate (p-nitrophenyl phosphate tablets; Sigma; 5 mg Cat#N9389; 20 mg Cat#. N2765) dissolved in diethanolamine buffer pH 9.8, to give a final concentration of 1 mg/ml, were added to each well.
# [8] = target: T7, recombinant human IL-17F (SEQ ID NO: 77); assay: cell-based or functional assay
# [9] = target: T1, recombinant human IL-17A (SEQ ID NO: 76); assay: cell-based or functional assay; remark: listed apart in the source
# [10] = target: T8, recombinant human IL-17A/F heterodimer; assay: cell-based or functional assay
# [11] = target: T9, recombinant human IL-23 (R&D Systems …); assay: ELISA, coated cytokine
# Description: as §1, §2
binder,measurement,setting,value
B1,"IC50, huGROα secretion by BJ cells; stimulus rhuIL-17A (0.5 nM)",[1],0.44 nM
same,binding result,[2],no binding (tested: 10 µg/ml)
same,binding result,[3],no binding (tested: 10 µg/ml)
same,binding result,[4],no binding (tested: 10 µg/ml)
same,binding result,[5],no binding (tested: 10 µg/ml)
same,binding result,[6],no binding (tested: 10 µg/ml)
same,binding result,[7],no binding (tested: 1 µg/ml)
same,"IC50, hu-GRO-alpha secretion by BJ cells; stimulus IL-17F (10 nM) + TNF-α (6 pM)",[8],> 3 µM
same,"IC50, hu-GRO-alpha secretion by BJ cells; stimulus IL-17F (30 nM)",[8],> 3000 nM
same,"IC50, hu-GRO-alpha secretion by BJ cells; stimulus IL-17A (30 pM) + TNF-α (6 pM)",[9],7 pM
same,"IC50, hu-GRO-alpha secretion by BJ cells; stimulus IL-17A (1 nM)",[9],0.35 nM
same,"IC50, hu-GRO-alpha secretion by BJ cells; stimulus IL-17A/F (300 pM) + TNF-α (6 pM)",[10],0.1 nM
same,"IC50, hu-GRO-alpha secretion by BJ cells; stimulus IL-17A/F (3 nM)",[10],1.11 nM
B2,"IC50, huGROα secretion by BJ cells; stimulus rhuIL-17A (0.5 nM)",[1],1.39 nM
same,binding result,[11],no binding (tested: 10 µg/ml)
same,"IC50, hu-GRO-alpha secretion by BJ cells; stimulus IL-17F (10 nM) + TNF-α (6 pM)",[8],> 3 µM
same,"IC50, hu-GRO-alpha secretion by BJ cells; stimulus IL-17A (30 pM) + TNF-α (6 pM)",[9],0.72 nM
same,"IC50, hu-GRO-alpha secretion by BJ cells; stimulus IL-17A/F (300 pM) + TNF-α (6 pM)",[10],6.22 nM
